# Experimental data published in publication PMC9482650, “Quantitative fragmentomics allow affinity mapping of interactomes” (Nature Communications, 2022).
# T1: MPP7, Q5T2T1
# T1 sequence (Q5T2T1 134-230, limits assumed, looked up): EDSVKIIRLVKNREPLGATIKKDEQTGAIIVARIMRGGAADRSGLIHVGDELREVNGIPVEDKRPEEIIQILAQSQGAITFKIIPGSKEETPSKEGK
# T2: DFNB31_2, Q9P202
# T2 sequence (Q9P202 274-371, limits assumed, looked up): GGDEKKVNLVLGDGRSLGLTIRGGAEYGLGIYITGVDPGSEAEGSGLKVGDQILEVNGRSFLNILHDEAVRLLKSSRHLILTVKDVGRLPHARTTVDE
# T3: DLG3_2, Q92796
# T3 sequence (Q92796 221-321, limits assumed, looked up): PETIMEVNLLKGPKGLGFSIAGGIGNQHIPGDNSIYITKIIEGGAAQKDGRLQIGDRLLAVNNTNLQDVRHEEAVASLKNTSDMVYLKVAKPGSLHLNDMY
# T4: MPDZ_10, O75970
# T4 sequence (O75970 1624-1722, limits assumed, looked up): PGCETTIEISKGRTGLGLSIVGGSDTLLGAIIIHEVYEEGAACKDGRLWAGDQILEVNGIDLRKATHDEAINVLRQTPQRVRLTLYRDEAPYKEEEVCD
# T5: DFNB31_3, Q9P202
# T5 sequence (Q9P202 811-907, limits assumed, looked up): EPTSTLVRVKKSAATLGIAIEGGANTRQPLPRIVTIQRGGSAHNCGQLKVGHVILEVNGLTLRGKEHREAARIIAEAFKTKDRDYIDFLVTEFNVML
# T6: MPDZ_5, O75970
# T6 sequence (O75970 695-796, limits assumed, looked up): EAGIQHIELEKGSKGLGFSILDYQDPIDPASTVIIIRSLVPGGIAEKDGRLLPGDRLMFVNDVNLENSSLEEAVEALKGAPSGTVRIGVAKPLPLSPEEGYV
# T7: SNTA1, Q13424
# T7 sequence (Q13424 82-180, limits assumed, looked up): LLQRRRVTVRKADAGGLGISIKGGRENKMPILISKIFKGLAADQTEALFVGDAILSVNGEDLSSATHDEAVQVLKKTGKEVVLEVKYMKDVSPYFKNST
# Molecular target: T1, MPP7, Q5T2T1
# Experiment: holdup assay
# Set-up: key: below the threshold = too weak to quantify, mostly under pKd 3.1 to 4
# Conditions: plain residues with an end cap or a label only (N-terminal biotin on a linker: ado-ado)
row,pKd,Binder
1,below the threshold,"KRPEMTSSSV [MUC3A, MUC3B, Q02505;Q9H195]"

# Molecular target: Inadl_3, Q8NI35
# Experiment: holdup assay
# Set-up: key: below the threshold = too weak to quantify, mostly under pKd 3.1 to 4
# Conditions: plain residues with an end cap or a label only (N-terminal biotin on a linker: ado-ado)
# Sequence of Inadl_3, Q8NI35 (Q8NI35 359-469): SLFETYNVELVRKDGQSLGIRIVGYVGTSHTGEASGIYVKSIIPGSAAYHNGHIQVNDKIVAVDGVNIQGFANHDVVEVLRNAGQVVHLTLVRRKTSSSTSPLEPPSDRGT
row,pKd,Binder
1,below the threshold,"KRPEMTSSSV [MUC3A, MUC3B, Q02505;Q9H195]"

# Molecular target: HTRA1, Q92743
# Experiment: holdup assay
# Set-up: key: below the threshold = too weak to quantify, mostly under pKd 3.1 to 4
# Conditions: plain residues with an end cap or a label only (N-terminal biotin on a linker: ado-ado)
# Sequence of HTRA1, Q92743 (Q92743 360-477): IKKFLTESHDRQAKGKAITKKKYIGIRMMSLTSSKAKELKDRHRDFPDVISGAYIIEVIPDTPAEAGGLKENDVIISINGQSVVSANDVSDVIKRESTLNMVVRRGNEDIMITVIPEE
row,pKd,Binder
1,below the threshold,"KRPEMTSSSV [MUC3A, MUC3B, Q02505;Q9H195]"

# Molecular target: T2, DFNB31_2, Q9P202
# Experiment: holdup assay
# Set-up: key: below the threshold = too weak to quantify, mostly under pKd 3.1 to 4
# Conditions: plain residues with an end cap or a label only (N-terminal biotin on a linker: ado-ado)
row,pKd,Binder
1,below the threshold,"KRPEMTSSSV [MUC3A, MUC3B, Q02505;Q9H195]"

# Molecular target: Inadl_4, Q8NI35
# Experiment: holdup assay
# Set-up: key: below the threshold = too weak to quantify, mostly under pKd 3.1 to 4
# Conditions: plain residues with an end cap or a label only (N-terminal biotin on a linker: ado-ado)
# Sequence of Inadl_4, Q8NI35 (Q8NI35 547-651): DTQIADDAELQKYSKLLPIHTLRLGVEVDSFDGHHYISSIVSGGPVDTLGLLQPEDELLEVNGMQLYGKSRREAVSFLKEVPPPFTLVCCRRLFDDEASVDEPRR
row,pKd,Binder
1,below the threshold,"KRPEMTSSSV [MUC3A, MUC3B, Q02505;Q9H195]"

# Molecular target: MAGI3_2, Q5TCQ9
# Experiment: holdup assay
# Set-up: key: below the threshold = too weak to quantify, mostly under pKd 3.1 to 4
# Conditions: plain residues with an end cap or a label only (N-terminal biotin on a linker: ado-ado)
# Sequence of MAGI3_2, Q5TCQ9 (Q5TCQ9 398-503): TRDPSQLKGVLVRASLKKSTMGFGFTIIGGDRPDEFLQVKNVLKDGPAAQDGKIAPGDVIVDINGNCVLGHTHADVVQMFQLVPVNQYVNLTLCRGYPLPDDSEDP
row,pKd,Binder
1,3.86,"KRPEMTSSSV [MUC3A, MUC3B, Q02505;Q9H195]"

# Molecular target: T3, DLG3_2, Q92796
# Experiment: holdup assay
# Set-up: key: below the threshold = too weak to quantify, mostly under pKd 3.1 to 4
# Conditions: plain residues with an end cap or a label only (N-terminal biotin on a linker: ado-ado)
row,pKd,Binder
1,4.26,"KRPEMTSSSV [MUC3A, MUC3B, Q02505;Q9H195]"

# Molecular target: PDLIM1, O00151
# Experiment: holdup assay
# Set-up: key: below the threshold = too weak to quantify, mostly under pKd 3.1 to 4
# Conditions: plain residues with an end cap or a label only (N-terminal biotin on a linker: ado-ado)
# Sequence of PDLIM1, O00151 (O00151 1-87): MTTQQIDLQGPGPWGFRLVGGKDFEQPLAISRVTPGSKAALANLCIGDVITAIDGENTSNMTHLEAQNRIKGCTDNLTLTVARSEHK
row,pKd,Binder
1,below the threshold,"KRPEMTSSSV [MUC3A, MUC3B, Q02505;Q9H195]"

# Molecular target: MAGI2_2, Q86UL8
# Experiment: holdup assay
# Set-up: key: below the threshold = too weak to quantify, mostly under pKd 3.1 to 4
# Conditions: plain residues with an end cap or a label only (N-terminal biotin on a linker: ado-ado)
# Sequence of MAGI2_2, Q86UL8 (Q86UL8 410-522): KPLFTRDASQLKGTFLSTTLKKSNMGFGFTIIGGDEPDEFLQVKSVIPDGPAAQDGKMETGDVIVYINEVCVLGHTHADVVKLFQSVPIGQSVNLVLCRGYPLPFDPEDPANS
row,pKd,Binder
1,3.65,"KRPEMTSSSV [MUC3A, MUC3B, Q02505;Q9H195]"

# Molecular target: T4, MPDZ_10, O75970
# Experiment: holdup assay
# Set-up: key: below the threshold = too weak to quantify, mostly under pKd 3.1 to 4
# Conditions: plain residues with an end cap or a label only (N-terminal biotin on a linker: ado-ado)
row,pKd,Binder
1,3.73,"KRPEMTSSSV [MUC3A, MUC3B, Q02505;Q9H195]"

# Molecular target: GRIP2_6, Q9C0E4
# Experiment: holdup assay
# Set-up: key: below the threshold = too weak to quantify, mostly under pKd 3.1 to 4
# Conditions: plain residues with an end cap or a label only (N-terminal biotin on a linker: ado-ado)
# Sequence of GRIP2_6, Q9C0E4 (Q9C0E4 648-740): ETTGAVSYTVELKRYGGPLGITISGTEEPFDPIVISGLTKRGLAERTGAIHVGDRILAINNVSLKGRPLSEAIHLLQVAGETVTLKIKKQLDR
row,pKd,Binder
1,below the threshold,"KRPEMTSSSV [MUC3A, MUC3B, Q02505;Q9H195]"

# Molecular target: T5, DFNB31_3, Q9P202
# Experiment: holdup assay
# Set-up: key: below the threshold = too weak to quantify, mostly under pKd 3.1 to 4
# Conditions: plain residues with an end cap or a label only (N-terminal biotin on a linker: ado-ado)
row,pKd,Binder
1,below the threshold,"KRPEMTSSSV [MUC3A, MUC3B, Q02505;Q9H195]"

# Molecular target: T6, MPDZ_5, O75970
# Experiment: holdup assay
# Set-up: key: below the threshold = too weak to quantify, mostly under pKd 3.1 to 4
# Conditions: plain residues with an end cap or a label only (N-terminal biotin on a linker: ado-ado)
row,pKd,Binder
1,below the threshold,"KRPEMTSSSV [MUC3A, MUC3B, Q02505;Q9H195]"

# Molecular target: T7, SNTA1, Q13424
# Experiment: holdup assay
# Set-up: key: below the threshold = too weak to quantify, mostly under pKd 3.1 to 4
# Conditions: plain residues with an end cap or a label only (N-terminal biotin on a linker: ado-ado)
row,pKd,Binder
1,1.76,"KRPEMTSSSV [MUC3A, MUC3B, Q02505;Q9H195]"

# Molecular target: FRMPD3, Q5JV73
# Experiment: holdup assay
# Set-up: key: below the threshold = too weak to quantify, mostly under pKd 3.1 to 4
# Conditions: plain residues with an end cap or a label only (N-terminal biotin on a linker: ado-ado)
# Sequence of FRMPD3, Q5JV73 (Q5JV73 12-100): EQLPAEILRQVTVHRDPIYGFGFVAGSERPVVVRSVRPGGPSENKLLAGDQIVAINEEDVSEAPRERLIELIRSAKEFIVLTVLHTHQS
row,pKd,Binder
1,below the threshold,"KRPEMTSSSV [MUC3A, MUC3B, Q02505;Q9H195]"
